{"source": "patent US20240067716A1", "about": "“IONIC LIQUID FORMULATIONS FOR TREATING INFLAMMATORY AND AUTOIMMUNE DISEASES” (i2O Therapeutics, Inc., priority 2021, published 2024)", "assay": "Local delivery of infliximab to small intestinal tissue after intrajejunal or intravenous dosing, LC-MS/MS", "format": "in vivo, Wistar rats", "conditions": "rat, 5 h", "text": "Adult non-diabetic male Wistar rats were fasted overnight but given free access to water and subsequently dosed via intrajejunal injection (IJ) with infliximab and one of various choline-based ionic liquids, dosed via IJ with infliximab and saline, or dosed via intravenous injection (IV) with infliximab and saline.", "data": [{"substance": "infliximab", "values": [{"measurement": "% of the injected infliximab dose in the local small intestinal tissue", "setting": "intrajejunal injection (IJ)", "value": 0.06, "unit": "%"}, {"measurement": "% of the injected antibody dose in the small intestinal tissue", "setting": "intravenous injection (IV), in saline", "value": 0.95, "unit": "%"}]}]}
